The experiment deals with T1, hiR2-FL-E594V-T7 (human, UniProt Q6PJF5 1-856).
T1 sequence: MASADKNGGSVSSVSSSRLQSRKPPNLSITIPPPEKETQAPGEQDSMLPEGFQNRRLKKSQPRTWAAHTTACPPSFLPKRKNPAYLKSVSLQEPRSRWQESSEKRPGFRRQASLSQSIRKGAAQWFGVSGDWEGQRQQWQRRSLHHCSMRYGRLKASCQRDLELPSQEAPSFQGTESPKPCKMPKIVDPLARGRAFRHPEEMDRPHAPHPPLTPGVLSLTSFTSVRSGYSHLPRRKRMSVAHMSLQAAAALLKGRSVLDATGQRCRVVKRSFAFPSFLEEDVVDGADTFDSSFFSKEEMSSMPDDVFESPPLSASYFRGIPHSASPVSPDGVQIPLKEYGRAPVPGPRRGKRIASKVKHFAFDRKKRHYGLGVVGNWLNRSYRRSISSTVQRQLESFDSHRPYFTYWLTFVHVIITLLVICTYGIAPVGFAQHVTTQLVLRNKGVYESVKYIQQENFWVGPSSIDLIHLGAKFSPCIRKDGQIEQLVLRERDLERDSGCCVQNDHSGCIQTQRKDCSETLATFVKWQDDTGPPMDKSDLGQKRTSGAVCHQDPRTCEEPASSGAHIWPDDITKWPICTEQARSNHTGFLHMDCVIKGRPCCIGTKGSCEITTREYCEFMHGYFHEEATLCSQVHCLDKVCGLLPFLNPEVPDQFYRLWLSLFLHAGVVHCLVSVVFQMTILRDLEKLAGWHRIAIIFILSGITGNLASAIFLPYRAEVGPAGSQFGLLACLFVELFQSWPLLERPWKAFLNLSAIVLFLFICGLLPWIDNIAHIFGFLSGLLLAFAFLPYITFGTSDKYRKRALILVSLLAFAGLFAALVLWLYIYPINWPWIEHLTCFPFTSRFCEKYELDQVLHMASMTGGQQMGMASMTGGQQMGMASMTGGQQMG
In words: FACS, MEF-DKO cells, 3 µg/ml. Put shortly:
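Binding read by flow cytometry after a PE goat anti-mouse IgG F(ab′)2 secondary (1:100, on ice, 1 h, dark). Before that, immortalized MEF-DKO lines carrying single-mutant hiR2-FL-T7 constructs were incubated 1 h on ice with 3 μg/ml antibody or FACS buffer alone.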
On the technique in general: In flow cytometry, cells or beads pass a laser one at a time.

Where a chain is given by its changes, count along the chain named. Some results are limits rather than exact numbers.

B1: antibody 48 (antibody, V domains shown)
VH: QVQLQQSGTELVRPGTSVKVSCKASGYAFTNYLIEWVKQRPGQGLEWIGVINPGSGFTKYNEKFKGKATLTADKSSSTVYMHLSSLTSEDSAVYFCARGLYRAMDYWGQGTSVTVSS
VL: DIQMTQSPASQSASLGESVTITCLASQTIATWLAWYQQKPGKSPQLLIYGATTLADGVPSRFSGGGSGTKFSFKISSLQAEDFVSYYCQQLYSTPYTFGGGTKLEIK
notes: mouse IgG, kappa light chain; also called clone #48; purified antibody 48
With B1, the “loss of binding vs wild type” value is at least 30%.

B2: antibody 50 (antibody, V domains shown)
VH: B1 VH with T9A, T16A, T30S, V79A, H82Q
VL: B1 VL with A30G, G50A, T52A, T53S, S85N, L91I
notes: mouse IgG, kappa light chain; also called clone #50; purified antibody 50
On to B2, for which the “loss of binding vs wild type” value was at least 30%.

(Values after US20240287172A1 (SCIRHOM, published 2024).)
